Square brackets hold non-standard residues; d marks the D form. Ends that are not written are not given here. * marks the point of attachment. Desaminotyrosyl = O=C(CCc1ccc(O)cc1)*; NMeY = CN[C@@H](Cc1ccc(O)cc1)C(=O)O; Nle = CCCC[C@H](N)C(=O)O; Orn = NCCC[C@H](N)C(=O)O; Abu = CC[C@H](N)C(=O)O; Aoc = NCCCCCCCC(=O)O; Ava = NCCCCC(=O)O
T1: GHRH receptor of human pituitary membrane homogenates (human, UniProt Q02643 23-423)
T1 construct: whole, on cells; Native receptor in pituitary membrane homogenates, not intact cells; also called hGH-RH receptor
T1 sequence (looked up): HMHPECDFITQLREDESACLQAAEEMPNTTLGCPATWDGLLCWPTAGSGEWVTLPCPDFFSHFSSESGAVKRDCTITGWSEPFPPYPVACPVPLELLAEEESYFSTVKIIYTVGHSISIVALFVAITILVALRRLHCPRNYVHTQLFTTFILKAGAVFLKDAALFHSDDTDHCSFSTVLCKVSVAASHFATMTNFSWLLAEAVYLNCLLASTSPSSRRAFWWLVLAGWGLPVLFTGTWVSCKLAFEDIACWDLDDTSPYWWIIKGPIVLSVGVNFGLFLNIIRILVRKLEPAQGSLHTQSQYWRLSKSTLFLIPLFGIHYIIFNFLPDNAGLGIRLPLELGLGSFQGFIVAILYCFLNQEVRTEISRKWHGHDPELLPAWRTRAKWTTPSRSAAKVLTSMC

B1: [Dat^1, D-Ala^2, Orn^12, Abu^15, Orn^21, Nle^27, Asp^28]hGH-RH(1-29)NH-CH3 (peptide)
peptide: [Desaminotyrosyl][dA]DAIFTNSYR[Orn]VL[Abu]QLSAR[Orn]LLQDI[Nle]DR-NHMe
SMILES: CCCC[C@H](NC(=O)[C@@H](NC(=O)[C@H](CC(=O)O)NC(=O)[C@H](CCC(N)=O)NC(=O)[C@H](CC(C)C)NC(=O)[C@H](CC(C)C)NC(=O)[C@H](CCCN)NC(=O)[C@H](CCCNC(=N)N)NC(=O)[C@H](C)NC(=O)[C@H](CO)NC(=O)[C@H](CC(C)C)NC(=O)[C@H](CCC(N)=O)NC(=O)[C@H](CC)NC(=O)[C@H](CC(C)C)NC(=O)[C@@H](NC(=O)[C@H](CCCN)NC(=O)[C@H](CCCNC(=N)N)NC(=O)[C@H](Cc1ccc(O)cc1)NC(=O)[C@H](CO)NC(=O)[C@H](CC(N)=O)NC(=O)[C@@H](NC(=O)[C@H](Cc1ccccc1)NC(=O)[C@@H](NC(=O)[C@H](C)NC(=O)[C@H](CC(=O)O)NC(=O)[C@@H](C)NC(=O)CCc1ccc(O)cc1)[C@@H](C)CC)[C@@H](C)O)C(C)C)[C@@H](C)CC)C(=O)N[C@@H](CC(=O)O)C(=O)N[C@@H](CCCNC(=N)N)C(=O)NC
B2: [Dat^1, Gln^8, His^11, Orn^12, Abu^15, His^20, Orn^21, Nle^27, Asp^28]hGH-RH(1-29)NH-CH3 (peptide)
peptide: [Desaminotyrosyl]ADAIFTQSYH[Orn]VL[Abu]QLSAH[Orn]LLQDI[Nle]DR-NHMe
SMILES: CCCC[C@H](NC(=O)[C@@H](NC(=O)[C@H](CC(=O)O)NC(=O)[C@H](CCC(N)=O)NC(=O)[C@H](CC(C)C)NC(=O)[C@H](CC(C)C)NC(=O)[C@H](CCCN)NC(=O)[C@H](Cc1c[nH]cn1)NC(=O)[C@H](C)NC(=O)[C@H](CO)NC(=O)[C@H](CC(C)C)NC(=O)[C@H](CCC(N)=O)NC(=O)[C@H](CC)NC(=O)[C@H](CC(C)C)NC(=O)[C@@H](NC(=O)[C@H](CCCN)NC(=O)[C@H](Cc1c[nH]cn1)NC(=O)[C@H](Cc1ccc(O)cc1)NC(=O)[C@H](CO)NC(=O)[C@H](CCC(N)=O)NC(=O)[C@@H](NC(=O)[C@H](Cc1ccccc1)NC(=O)[C@@H](NC(=O)[C@H](C)NC(=O)[C@H](CC(=O)O)NC(=O)[C@H](C)NC(=O)CCc1ccc(O)cc1)[C@@H](C)CC)[C@@H](C)O)C(C)C)[C@@H](C)CC)C(=O)N[C@@H](CC(=O)O)C(=O)N[C@@H](CCCNC(=N)N)C(=O)NC
notes: also called Peptide 27413
B3: [Dat^1, Gln^8, Orn^12, Abu^15, Orn^21, Nle^27, Asp^28]hGH-RH(1-29)NH-CH3 (peptide)
peptide: [Desaminotyrosyl]ADAIFTQSYR[Orn]VL[Abu]QLSAR[Orn]LLQDI[Nle]DR-NHMe
SMILES: CCCC[C@H](NC(=O)[C@@H](NC(=O)[C@H](CC(=O)O)NC(=O)[C@H](CCC(N)=O)NC(=O)[C@H](CC(C)C)NC(=O)[C@H](CC(C)C)NC(=O)[C@H](CCCN)NC(=O)[C@H](CCCNC(=N)N)NC(=O)[C@H](C)NC(=O)[C@H](CO)NC(=O)[C@H](CC(C)C)NC(=O)[C@H](CCC(N)=O)NC(=O)[C@H](CC)NC(=O)[C@H](CC(C)C)NC(=O)[C@@H](NC(=O)[C@H](CCCN)NC(=O)[C@H](CCCNC(=N)N)NC(=O)[C@H](Cc1ccc(O)cc1)NC(=O)[C@H](CO)NC(=O)[C@H](CCC(N)=O)NC(=O)[C@@H](NC(=O)[C@H](Cc1ccccc1)NC(=O)[C@@H](NC(=O)[C@H](C)NC(=O)[C@H](CC(=O)O)NC(=O)[C@H](C)NC(=O)CCc1ccc(O)cc1)[C@@H](C)CC)[C@@H](C)O)C(C)C)[C@@H](C)CC)C(=O)N[C@@H](CC(=O)O)C(=O)N[C@@H](CCCNC(=N)N)C(=O)NC
notes: also called Peptide 27407
B4: [Dat^1, D-Ala^2, Orn^12, Abu^15, Orn^21, Nle^27, Asp^28, Amc^30]hGH-RH(1-30)NH2 (peptide)
peptide: [Desaminotyrosyl][dA]DAIFTNSYR[Orn]VL[Abu]QLSAR[Orn]LLQDI[Nle]DR[Aoc]-NH2
SMILES: CCCC[C@H](NC(=O)[C@@H](NC(=O)[C@H](CC(=O)O)NC(=O)[C@H](CCC(N)=O)NC(=O)[C@H](CC(C)C)NC(=O)[C@H](CC(C)C)NC(=O)[C@H](CCCN)NC(=O)[C@H](CCCNC(=N)N)NC(=O)[C@H](C)NC(=O)[C@H](CO)NC(=O)[C@H](CC(C)C)NC(=O)[C@H](CCC(N)=O)NC(=O)[C@H](CC)NC(=O)[C@H](CC(C)C)NC(=O)[C@@H](NC(=O)[C@H](CCCN)NC(=O)[C@H](CCCNC(=N)N)NC(=O)[C@H](Cc1ccc(O)cc1)NC(=O)[C@H](CO)NC(=O)[C@H](CC(N)=O)NC(=O)[C@@H](NC(=O)[C@H](Cc1ccccc1)NC(=O)[C@@H](NC(=O)[C@H](C)NC(=O)[C@H](CC(=O)O)NC(=O)[C@@H](C)NC(=O)CCc1ccc(O)cc1)[C@@H](C)CC)[C@@H](C)O)C(C)C)[C@@H](C)CC)C(=O)N[C@@H](CC(=O)O)C(=O)N[C@@H](CCCNC(=N)N)C(=O)NCCCCCCCC(N)=O
notes: also called Peptide 21300
B5: [N-Me-Tyr^1, Orn^12, Abu^15, Orn^21, Nle^27, Asp^28, Amc^30]hGH-RH(1-30)NH2 (peptide)
peptide: [NMeY]ADAIFTNSYR[Orn]VL[Abu]QLSAR[Orn]LLQDI[Nle]DR[Aoc]-NH2
modifications: N-terminus assumed
SMILES: CCCC[C@H](NC(=O)[C@@H](NC(=O)[C@H](CC(=O)O)NC(=O)[C@H](CCC(N)=O)NC(=O)[C@H](CC(C)C)NC(=O)[C@H](CC(C)C)NC(=O)[C@H](CCCN)NC(=O)[C@H](CCCNC(=N)N)NC(=O)[C@H](C)NC(=O)[C@H](CO)NC(=O)[C@H](CC(C)C)NC(=O)[C@H](CCC(N)=O)NC(=O)[C@H](CC)NC(=O)[C@H](CC(C)C)NC(=O)[C@@H](NC(=O)[C@H](CCCN)NC(=O)[C@H](CCCNC(=N)N)NC(=O)[C@H](Cc1ccc(O)cc1)NC(=O)[C@H](CO)NC(=O)[C@H](CC(N)=O)NC(=O)[C@@H](NC(=O)[C@H](Cc1ccccc1)NC(=O)[C@@H](NC(=O)[C@H](C)NC(=O)[C@H](CC(=O)O)NC(=O)[C@H](C)NC(=O)[C@H](Cc1ccc(O)cc1)NC)[C@@H](C)CC)[C@@H](C)O)C(C)C)[C@@H](C)CC)C(=O)N[C@@H](CC(=O)O)C(=O)N[C@@H](CCCNC(=N)N)C(=O)NCCCCCCCC(N)=O
notes: also called Peptide 21301
B6: [Dat^1, Gln^8, Orn^12, Abu^15, Orn^21, Nle^27, Asp^28, Apa^30]hGH-RH(1-30)NH2 (peptide)
peptide: [Desaminotyrosyl]ADAIFTQSYR[Orn]VL[Abu]QLSAR[Orn]LLQDI[Nle]DR[Ava]-NH2
SMILES: CCCC[C@H](NC(=O)[C@@H](NC(=O)[C@H](CC(=O)O)NC(=O)[C@H](CCC(N)=O)NC(=O)[C@H](CC(C)C)NC(=O)[C@H](CC(C)C)NC(=O)[C@H](CCCN)NC(=O)[C@H](CCCNC(=N)N)NC(=O)[C@H](C)NC(=O)[C@H](CO)NC(=O)[C@H](CC(C)C)NC(=O)[C@H](CCC(N)=O)NC(=O)[C@H](CC)NC(=O)[C@H](CC(C)C)NC(=O)[C@@H](NC(=O)[C@H](CCCN)NC(=O)[C@H](CCCNC(=N)N)NC(=O)[C@H](Cc1ccc(O)cc1)NC(=O)[C@H](CO)NC(=O)[C@H](CCC(N)=O)NC(=O)[C@@H](NC(=O)[C@H](Cc1ccccc1)NC(=O)[C@@H](NC(=O)[C@H](C)NC(=O)[C@H](CC(=O)O)NC(=O)[C@H](C)NC(=O)CCc1ccc(O)cc1)[C@@H](C)CC)[C@@H](C)O)C(C)C)[C@@H](C)CC)C(=O)N[C@@H](CC(=O)O)C(=O)N[C@@H](CCCNC(=N)N)C(=O)NCCCCC(N)=O
notes: also called Peptide 22327
B7: [N-Me-Tyr^1, D-Ala^2, Orn^12, Abu^15, Orn^21, Nle^27, Asp^28, Amc^30]hGH-RH(1-30)NH2 (peptide)
chain: [NMeY][dA]DAIFTNSYR[Orn]VL[Abu]QLSAR[Orn]LLQDI[Nle]DR[Aoc]-NH2
modifications: N-terminus assumed
SMILES: CCCC[C@H](NC(=O)[C@@H](NC(=O)[C@H](CC(=O)O)NC(=O)[C@H](CCC(N)=O)NC(=O)[C@H](CC(C)C)NC(=O)[C@H](CC(C)C)NC(=O)[C@H](CCCN)NC(=O)[C@H](CCCNC(=N)N)NC(=O)[C@H](C)NC(=O)[C@H](CO)NC(=O)[C@H](CC(C)C)NC(=O)[C@H](CCC(N)=O)NC(=O)[C@H](CC)NC(=O)[C@H](CC(C)C)NC(=O)[C@@H](NC(=O)[C@H](CCCN)NC(=O)[C@H](CCCNC(=N)N)NC(=O)[C@H](Cc1ccc(O)cc1)NC(=O)[C@H](CO)NC(=O)[C@H](CC(N)=O)NC(=O)[C@@H](NC(=O)[C@H](Cc1ccccc1)NC(=O)[C@@H](NC(=O)[C@H](C)NC(=O)[C@H](CC(=O)O)NC(=O)[C@@H](C)NC(=O)[C@H](Cc1ccc(O)cc1)NC)[C@@H](C)CC)[C@@H](C)O)C(C)C)[C@@H](C)CC)C(=O)N[C@@H](CC(=O)O)C(=O)N[C@@H](CCCNC(=N)N)C(=O)NCCCCCCCC(N)=O

Target: T1, GHRH receptor of human pituitary …
Test: radioligand competition, 125I-JV-1-42 (~0.2 nM) as competitor, human pituitary membrane homogenates
Text: Normal human pituitaries were purchased from the National Hormone and Peptide Program (A. F. Parlow, Los Angeles, County Harbor-UCLA Medical Center, Torrance, Calif.).

Binder	IC50 [nM]	Relative affinity (Binding potency) vs JI-38
B1	3.35	1.3 fold, JI-38 = 1
[NMeY]ADAIFTQSYR[Orn]VL[Abu]QLSAR[Orn]LLQDI[Nle]DR-NHMe (also called Peptide 27406) [[N-Me-Tyr^1, Gln^8, Orn^12, Abu^15, Orn^21, Nle^27, Asp^28]hGH-RH(1-29)NH-CH3]	0.3	14.5 fold, JI-38 = 1
B2	2.45	1.78 fold, JI-38 = 1
[NMeY]ADAIFTQSYR[Orn]VL[Abu]QLSAR[Orn]LLQDI[Nle]SR-NHMe [[N-Me-Tyr^1, Gln^8, Orn^12, Abu^15, Orn^21, Nle^27]hGH-RH(1-29)NH-CH3]	1.08	4.03 fold, JI-38 = 1
B3	3	1.45 fold, JI-38 = 1
[NMeY][dA]DAIFTTSYR[Orn]VL[Abu]QLSAR[Orn]LLQDI[Nle]DR-NHMe [[N-Me-Tyr^1, D-Ala^2, Thr^8, Orn^12, Abu^15, Orn^21, Nle^27, Asp^28]hGH-RH(1-29)NH-CH3]	0.83	5.24 fold, JI-38 = 1
[NMeY][dA]DAIFTQSYR[Orn]VL[Abu]QLSAR[Orn]LLQDI[Nle]DR-NHEt (also called Peptide 28420) [[N-Me-Tyr^1, D-Ala^2, Gln^8, Orn^12, Abu^15, Orn^21, Nle^27, Asp^28]hGH-RH(1-29)NH-CH2-CH3]		8.37 fold, JI-38 = 1
B4	3.61	1.2 fold, JI-38 = 1
B5	2.99	1.45 fold, JI-38 = 1
B6	1.99	2.18 fold, JI-38 = 1
[NMeY]ADAIFTQSYR[Orn]VL[Abu]QLSAR[Orn]LLQDI[Nle]DR[Ava]-NH2 (also called Peptide 22325) [[N-Me-Tyr^1, Gln^8, Orn^12, Abu^15, Orn^21, Nle^27, Asp^28, Apa^30]hGH-RH(1-30)NH2]	3.8	1.14 fold, JI-38 = 1
B7	1.87	2.32 fold, JI-38 = 1

Reference: US20140058068A1 (UNIVERSITY OF MIAMI, published 2014)
